Experimental data published in article PMC7475177, “[…] RESPONSE FACTOR39–MYB8 complex regulates low-temperature-induced lignification of loquat fruit”.

Target: EjERF39 (Eriobotrya japonica cv. Luoyangqing …, UniProt A0A482LZG5 1-253)
Assay: EMSA; not given in the material; EMSA as described by Ge et al. (2017)
Conditions: protein: recombinant; tags: GST (pGEX-4T-1); label: 3' biotin

EjERF39, sequence (A0A482LZG5 entry or part of it): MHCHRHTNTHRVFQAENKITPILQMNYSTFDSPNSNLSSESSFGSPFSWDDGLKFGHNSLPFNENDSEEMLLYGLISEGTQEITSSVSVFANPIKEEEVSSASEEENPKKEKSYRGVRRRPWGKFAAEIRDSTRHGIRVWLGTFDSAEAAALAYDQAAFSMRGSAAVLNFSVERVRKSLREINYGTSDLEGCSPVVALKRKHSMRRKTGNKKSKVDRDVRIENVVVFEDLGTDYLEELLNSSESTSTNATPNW

Binder	binding result
Ej4CL1 promoter DRE1 probe (dsDNA) DNA 1: TCGCCTTGTTGGTTATGCCGACGCAGGATACTTGTCTG DNA 2: CAGACAAGTATCCTGCGTCGGCATAACCAACAAGGCGA	no binding
Ej4CL1 promoter DRE2 probe (dsDNA) DNA 1: GTTCACAAGACAATCTGGCCGACCTCTTCACAAAATCAGT DNA 2: ACTGATTTTGTGAAGAGGTCGGCCAGATTGTCTTGTGAAC	binds
